Test results as given in article PMC5741622, “Structure of a Wbl protein and implications for NO sensing by M. tuberculosis” (Nature Communications, 2017).

B1: Mycobacterium tuberculosis WhiB1, untagged, [4Fe-4S] form (holo-WhiB1), co-expressed with His-tagged σ^A or σ^ACTD (natural protein)
chain: MDWRHKAVCRDEDPELFFPVGNSGPALAQIADAKLVCNRCPVTTECLSWALNTGQDSGVWGGMSEDERRALKRRNARTKARTGV
modifications: [4Fe-4S] cluster coordinated by cysteine residues 9, 37, 40 and 46
notes: Iron-sulfur cluster assembled in vivo; free [4Fe-4S]; WhiB1 seen at 9668 Da and apo-WhiB1 at 9315 Da in native ESI-MS; also called [4Fe-4S]-WhiB1; untagged WhiB1
B3: His-tagged C-terminal domain (amino acids Ala447-Asp528) of M. tuberculosis σ^A (domain or fragment)
chain: AVDAVSFTLLQDQLQSVLDTLSEREAGVVRLRFGLTDGQPRTLDEIGQVYGVTRERIRQIESKTMSKLRHPSRSQVLRDYLD
notes: A thrombin cleavage site lies between the His6 tag and the domain; seen at 11,522 Da in native ESI-MS; also called His-σ^ACTD; σ^ACTD; not shown: His6, N-terminal, kept

What was measured:
[1] = biological target: B3; assay: native MS; settings: both partners purified
[2] = biological target: T1, M. tuberculosis σ^ACTD fused to the T18 domain of Bordetella pertussis adenylate cyclase (Mycobacterium tuberculosis, UniProt P9WGI1 447-528); assay: two-hybrid; settings: partners not purified
T1 construct: also called T18-σ^ACTD
T1 sequence: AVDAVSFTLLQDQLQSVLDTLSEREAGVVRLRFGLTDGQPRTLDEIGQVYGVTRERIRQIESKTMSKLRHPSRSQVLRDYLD

[3] = biological target: B1; assay: pull-down; settings: partners not purified

Binder: B1
- stoichiometry N [1]: 1

B2: M. tuberculosis WhiB1 fused to the T25 domain of Bordetella pertussis adenylate cyclase (natural protein)
chain: MDWRHKAVCRDEDPELFFPVGNSGPALAQIADAKLVCNRCPVTTECLSWALNTGQDSGVWGGMSEDERRALKRRNARTKARTGV
notes: also called T25-WhiB1
- β-galactosidase activity against the negative control (vectors only) [2]: ~20 fold
- β-galactosidase activity against the positive control (Zip-Zip) [2]: ~3 fold lower

Binder: B3
- binding result [3]: binds
